Results published in US20200385445A1.

What was measured:
[1] = target: mouse PVRL2 endogenously expressed on B16-F10 cells (mouse) (UniProt P32507); experiment: FACS dose response on B16-F10 cells
[2] = target: mouse PVRL2 splice variant 1 (sv1) over-expressed on HEK293 cells (RC-334) (mouse) (UniProt P32507); experiment: FACS on HEK293 OX mouse PVRL2 sv1
[3] = target: mouse PVRL2 splice variant 2 (sv2) over-expressed on HEK293 cells (RC-335) (mouse) (UniProt P32507); experiment: FACS dose response on HEK293 OX mouse PVRL2
Sequence of mouse PVRL2 splice variant 2 (sv2) over-expressed on HEK293 cells (RC-335) (mouse) (P32507 32-530, change not shown): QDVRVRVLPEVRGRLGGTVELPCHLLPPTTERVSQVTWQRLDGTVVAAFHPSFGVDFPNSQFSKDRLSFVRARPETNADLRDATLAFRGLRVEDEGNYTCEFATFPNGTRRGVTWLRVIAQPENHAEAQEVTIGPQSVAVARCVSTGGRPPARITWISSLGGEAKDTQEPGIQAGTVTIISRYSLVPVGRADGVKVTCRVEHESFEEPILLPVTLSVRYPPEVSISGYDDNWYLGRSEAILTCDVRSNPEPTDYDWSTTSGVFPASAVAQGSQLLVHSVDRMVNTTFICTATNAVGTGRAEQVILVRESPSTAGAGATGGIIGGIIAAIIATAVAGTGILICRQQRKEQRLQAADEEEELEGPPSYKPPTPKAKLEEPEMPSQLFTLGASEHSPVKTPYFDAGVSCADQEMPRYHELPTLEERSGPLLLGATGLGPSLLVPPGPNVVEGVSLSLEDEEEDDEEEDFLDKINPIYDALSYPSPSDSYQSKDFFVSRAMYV

[4] = target: mouse PVRIG over-expressed on HEK293 cells (RC-287; PVRIG-FLAG RC-286) (mouse); experiment: FACS on cells OX mouse PVRIG, preliminary data
[5] = target: mouse PVRIG over-expressed on HEK293 cells (RC-287; PVRIG-FLAG RC-286) (mouse); experiment: FACS on HEK293 OX mouse PVRIG, 60 ug/ml, one of two sources
[6] = target: mouse PVRIG over-expressed on HEK293 cells (RC-287; PVRIG-FLAG RC-286) (mouse); experiment: FACS on cells OX mouse PVRIG
[7] = target: mouse PVRIG over-expressed on HEK293 cells (RC-287; PVRIG-FLAG RC-286) (mouse); experiment: FACS on HEK293 OX mouse PVRIG, 60 ug/ml, other of two sources

Sequence of mouse PVRL2-his (R&D, 3869-N2; Sino Biological, 50318-M08H) (P32507 32-351 limits assumed, stated change not applied): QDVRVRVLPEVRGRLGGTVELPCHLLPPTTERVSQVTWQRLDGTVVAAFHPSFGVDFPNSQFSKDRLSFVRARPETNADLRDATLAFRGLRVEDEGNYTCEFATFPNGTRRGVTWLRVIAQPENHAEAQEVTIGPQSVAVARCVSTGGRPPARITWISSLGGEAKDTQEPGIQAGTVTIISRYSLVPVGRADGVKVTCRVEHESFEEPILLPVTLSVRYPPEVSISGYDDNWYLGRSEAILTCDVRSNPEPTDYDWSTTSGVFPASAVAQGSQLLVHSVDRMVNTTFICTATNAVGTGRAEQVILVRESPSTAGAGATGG
Sequence of mouse PVRL2 splice variant 1 (sv1) over-expressed on HEK293 cells (RC-334) (mouse) (P32507 32-530, change not shown): as the sequence (P32507 32-530, change not shown) above
Sequence of custom Fc-fused mouse PVRL2 (GenScript) (P32507 32-351 limits assumed): as the sequence (P32507 32-351 limits assumed, stated change not applied) above
Sequence of mouse PVRL2 endogenously expressed on B16-F10 cells (mouse) (P32507 32-530): as the sequence (P32507 32-530, change not shown) above

PVRIG mECD-mIg fusion protein (ECD of mouse PVRIG fused to the Fc of mouse IgG2a) (Fc fusion)
concentration at saturation of binding [1]: 12.5 µg/mL
fold binding vs empty vector cells [2]: 6 to 11 fold
concentration at saturation of binding [3]: 12.5 µg/mL

custom Fc-fused mouse PVRL2 (GenScript) (from UniProt P32507 32-351) (Fc fusion)
fold binding [4]: 5 fold

mouse PVRL2-his (R&D, 3869-N2; Sino Biological, 50318-M08H) (from UniProt P32507 32-351) (ligand)
fold binding vs empty vector cells [5]: 2 fold
fold binding [6]: 2 to 3 fold
fold binding vs empty vector cells [7]: 3 to 4 fold
